Measurements: patent US20040072369A1, “Methods for assaying for urea and kits for use therein” (priority 2002, published 2004)
Residue numbers refer to the chain shown, from its start. Numbers in names are those of the source.

Tests used:
[1] = system: UreD-GFP fusion protein (urea-inducible ureD promoter); assay: Urea induction of UreD-GFP fusion, Western blot with anti-GFP; format: cell-based, P. mirabilis HI4320; conditions: 0-500 mM urea tested (FIG. 1)
Source text: Thus, to investigate in vivo expression of P. mirabilis urease, the gene encoding green fluorescent protein (GFP) was used to construct reporter fusions. Translational fusions of urease accessory gene ureD, which is preceded by a urea-inducible promoter, were made with gfp (modified to express S65TIV68L/S72A, a well-known variant of gfp). The constructs were confirmed by sequencing of the fusion junctions. UreD-GFP fusion protein was induced by urea in both E. coli DH5a and P. mirabilis HI4320. Thereafter, Western blotting was carried out with antiserum raised against GFP.

[2] = system: ureD promoter (PureD-lacZ reporter construct); assay: β-galactosidase reporter assay (PureD-lacZ) with UreR constructs; format: cell-based, E. coli Top10
Method: Cultures were grown to mid-log phase and induced with 0.2% (w/v) arabinose in the presence or absence of 100 mM urea for 90 min. All constructs were assayed in duplicate in five independent experiments.
More specifically, wild-type ureR was cloned into the NcoI/XhoI site of pBAD/MycHisA (Invitrogen) to create pCP016 (Poore et al, supra). This construct was used to create alanine mutants using overlapping PCR site-directed mutagenesis as described by Ho et al, Gene, 71:51-59 (1989); and Poore et al, supra. Full-length mutant ureR PCR products were then constructed by ligation into the NcoI/XhoI site of pBAD/MycHisA. Following PCR mutation to Ala, all of the cloned products in the pBAD vector were verified by sequencing. The constructs were then cotransformed with the reporter vector PureD-lacZ into E. coli Top10 (pCC142) (Invitrogen). The β-gal reporter construct pCC042 (tetR) carries a transcriptional fusion of the ureD promoter (pureD) and lacZ (Poore et al, supra). Unless otherwise stated, strains were cultured in Luria broth supplemented with ampicillin (100 μg/ml), kanamycin (50 μg/ml), or tetracycline (15 μg/ml) as required. Thereafter, activity was determined using a β-galactosidase reporter assay in the absence and presence of 100 mM urea.
More specifically, overnight cultures were diluted 1:10 into fresh medium supplemented with ampicillin. Mid-exponential cultures were induced with 0.2% (w/v) arabinose and either no urea or 100 mM urea for 1 h. Bacterial suspensions were placed on ice for 10 min and then permeabilized with 0.1% (w/v) SDS (50 μl) and chloroform (100 μl) at room temperature for 30 min. Aliquots (20-50 μl) were diluted to 1.0 ml in Z buffer comprising 200 μl o-nitrophenyl-β-D-galactopyranoside (4.0 mg/ml) and were incubated at room temperature. Timed reactions were stopped by addition of 1.0 M Na2CO3 (500 μl) and the optical densities at 420 nm and 550 nm were used to calculate Miller units for each assay (Platt et al, “Assays of β-galactosidase Activity”, In: Miller (ed.), Experiments in Molecular Genetics, Cold Spring Harbor Press, Cold Spring Harbor, N.Y., pages 352-355 (1972)). […] The results, which are shown in Table 1 below, are expressed as the average of at least three independent experiments.
The UreR Trp point mutants were confirmed by sequencing and were tested for the ability to induce β-galactosidase expression using the PureD-lacZ reporter assay in the presence of 100 mM urea as described above.

[3] = Trp emission spectra of purified nUreR Trp mutants titrated with urea; format: binding; conditions: upon addition of urea (0-150 mM); excitation 280 nm; room temperature
Method: Protein samples (2.0 μM) in 50 mM PBS (pH 7.0), were excited at 280 nm at room temperature.
Three independent experiments were used to calculate the binding constant for this mutant. ΔTrp Emission is the difference in Trp emission intensity with and without urea. The binding constant was determined by fitting the data to the corresponding Hill parameters.
More specifically, Trp emission spectra were collected at room temperature using a Varian Cary Eclipse spectrofluorometer. Purified nUreR Trp mutants (5.0 μM) were excited at 280 nm and urea-dependent emission spectra were measured on the same sample following titration with increasing concentrations (0-150 mM) of urea.
The corresponding Hill parameters were invoked using the curve fitting functions packaged with the Microcal Origin 6.0 data analysis graphing program (Northampton, Mass.).
Trp fluorescence emission spectra from 300-450 nm were taken in the presence of increasing concentrations of urea (0, 0.05, 1, 10, 100 and 150 mM).

NC(N)=O [urea]
urea concentration giving highest induction of UreD-GFP [1]: 200 to 500 mM

B1: Y54W UreR (protein, UniProt Q02458 1-293, looked up, variant Y54W)
Urease operon transcriptional …: MEYKHILSSNQISLKTFYIENPMIAIVYGAKGEICINGQTITVTTNLTLIIPKWSQVSCDVTNFFPTKPIELHTLVLSETELQSVFSLLKPLIKSGAPITRHLPDYHLSTPEVVKTNFTLLQQCLPLEHGTPSQETLFMQQSLFFILLAVYHEGVDILNIFRFNYDEPKNQAITHLITQDPQRKWHLEDVAKTLYTTPSTLRRHLSKEGVSFCQLLLDVRMPIALNYLTFSNYSVFQISHRCGFGSNAYFCDAFKRKYGMTPSQFRTQSRQANDPNAIATMASQNDESIKKVF
fold induction in β-galactosidase activity ([2]; addition of 100 mM urea (FIG. 3)): 2.8 fold | β-galactosidase reporter activity compared to wild-type UreR ([2]; full-length UreR Trp point mutants, 100 mM urea (FIG. 3)): overall reduction in the level of activation

B2: Wild-type: wild-type P. mirabilis UreR expressed from pBAD/MycHisA (pCP016) (protein, UniProt Q02458 1-293, looked up)
Urease operon transcriptional …: B1 Urease operon transcriptional … with W54Y
modifications: Myc-His tag from pBAD/MycHisA
β-Galactosidase Activity (Miller units), 0 mM urea ([2]; 0 mM urea, 0.2% arabinose induction, average of at least three experiments): 632 ± 203 Miller units | β-Galactosidase Activity (Miller units), 100 mM urea ([2]; 100 mM urea, 0.2% arabinose induction, average of at least three experiments): 3709 ± 1570 Miller units

B3: Y151W nUreR (protein, UniProt Q02458 1-293, looked up, variant Y151W)
Urease operon transcriptional …: B1 Urease operon transcriptional … with W54Y, Y151W
% Decrease in Trp Emission [3]: 9 ± 2%
